Experimental findings from US20040170601A1, “Method of improving the growth performance of an animal” (priority 2001, published 2004) are described below.

In data set [1] the test system is eosinophils. Description: Example 10: porcine IL-3 on cell populations over a longer duration. Format: in vivo, pigs. Conditions: 100 μg IL-3 twice weekly for 2 weeks, followed to day 57. The method, then: This trial compared the effects of recombinant porcine IL-3 protein on eosinophil numbers in the blood of pigs over 8 weeks.
(§1) The experiment was conducted using medicated feed (Barastoc EziWean 150 then Bunge Grolean) ad libitum in an experimental environment (PC2 containment facilities).
Injections were administered intramuscularly in the hind leg. Pigs were 5 weeks of age at commencement of trial. Blood samples were taken for haematology on days 0 (prior to injection), 1, 2, 3, 4, 7, 8, 10, 11, 15, 22, 29, and 57. Full haematology analysis was performed, using the Abbott Cell-Dyn 3700. Examination of selected smears was done for confirmation.

For data set [2], the system named is cell populations in the blood. Description: Example 9: porcine IL-3 on blood cell populations. Type of data set: in vivo, pigs. As for the experimental part:
This trial examined the effect of administering recombinant porcine IL-3 protein on cell populations in the blood of pigs.
as §1
Injections were administered intramuscularly in the hind leg. Pigs were 9 weeks of age at commencement of trial.
Blood samples were taken for haematology on days 0, 1, 2, 3, 4, 7, 9, 11, 15 and 17. Full haematology analysis was performed, using the Abbott Cell-Dyn 3700 and examination of selected smears were done for confirmation.

Data set [3] deals with eosinophils. Description: Example 11: IL-5 and IL-3 on eosinophil production. Format: in vivo, pigs. The note with it: single cytokine 100 μg IM days 0, 3, 7, 10. From the text: The aim of this example was to determine if the effects of IL-3 and IL-5 act synergistically to increase eosinophil levels and antibody production.
As IL-3 stimulates the proliferation of pre-active B cells prior to the effects of IL-5, it was believed that administration of both IL-3 and IL-5 would have a greater impact on eosinophil production than the administration of either cytokine alone. An experiment was undertaken using pigs raised under clean PC2 conditions with raised floors. There were 5 treatments with 6 pigs per treatment. Pigs were 5-6 weeks of age. The animals were injected intramuscularly on days 0, 3, 7 and 10 of the experiment with either recombinant cytokines or saline. The treatments include IL-5 and IL-3 alone and given either together at the same time at different sites or to the same animal but with IL-3 being administered one week before IL-5. The treatments were as follows:
Group 3—100 μg IL-3+100 μg IL-5 (separate sites)
The pigs were bled 4 times per week for the first 2 weeks and once per week for the following 2 weeks and haematology measured using a CellDyn machine. Sera were collected also each week and tested for antibody levels.

The nature of data set [4]: Example 8: growth performance of pigs administered IL-3 in a commercial piggery. Type of data set: in vivo. As for the experimental part:
This trial evaluated the capacity of IL-3 to improve growth performance and immunity of pigs by comparing the growth rate and health of weaner pigs (28 day old weaners is Day 0 of the trial and the weaner period continued for 42 days) through to the finisher stage (Days 93 to 113) and slaughter (133 days after commencing the trial), which were administered with the recombinant porcine cytokine, IL-3, and saline was used as a control, with and without standard weaner medicated water and feed in a commercial piggery environment.
40 pigs per treatment were mixed in groups, with 4 replicates containing standard medicated water and feed and 4 replicates without medicated feed or water.
Overall weights for each group at the start of the experiment were equivalent. All pigs at the start of the trial (Day 0) were 28 day old male weaners.
IL-3 was provided in saline to inject 1 ml/pig.
Weights were measured at start, throughout the experiment and at the end of experiment. The trial continued for 133 days after the commencement ie. final weights were determined and animals slaughtered 133 days after the start of the weaning period. Weaning Days 0-42, Grower period Days 42-93, Finisher period Days 93-133. Treatments were administered during the weaner period only.
Blood and sera samples collected at start (before treatments) and end of the weaner period. Blood and sera were taken prior to injecting samples.
Recombinant porcine IL-3 was expressed in E. coli and purified using a polyHis tag system as described in Example 4. IL-3 was tested for biological activity in a bioassay prior to the start of the experiment.

Another data set deals with IL-6. Description: Example 12: IL-6 in peripheral blood by RT-PCR after App challenge. Format: in vivo, pigs. Conditions: day 13 after challenge. The method, then:
(§2) Due to the intermittent availability of Actinobacillus pleuropneumoniae (App), the App challenge was performed separately on the 2 rooms, resulting in different time schedules for each room, as outlined in Table 9. Prior to each challenge, pigs were treated with recombinant cytokines, flunix or plasmids as described above; the timing of treatments with respect to challenge is described in Table 9. Pigs were anaesthetised and infected intratracheally with 7.5×10^5 […] on day 0.
(§3) […] Blood was assayed for immunological parameters as previously described.
(§4) Briefly, assays were performed on blood samples using standard techniques, including: white blood cell counts performed using an automated cell counter; differential cell counts performed manually on stained blood smears; lymphocyte subset enumeration via flow cytometry; neutrophil function determined by flow cytometry; lymphocyte proliferation determined using a thymidine incorporation assay in response to mitogens; total IgG and IgA levels were identified using indirect sandwich ELISA; levels of mRNA for pro-inflammatory cytokines was detected by RT-PCR. TNF levels were additionally measured in serum by bioassay using L929 target cells. Pigs were weighed weekly from delivery of plasmids and for 2 weeks after challenge.

The subject of another data set is TNFα. Description: Example 12: TNFα in serum after App challenge (bioassay, L929 target cells). Type of data set: in vivo, pigs. Conditions: day 13 after challenge. The method, then:
as §2, §3, §4

Data set [5] concerns Brachyspira (Serpulina) hyodysenteriae. Description: Example 13: swine dysentery challenge, IL-4 prophylactic. Format: in vivo, pigs. From the text:
The aim of this example was to determine whether IL-4 could improve the health of pigs infected with an enteric inflammatory pathogen causing swine dysentery, Brachyspira (Serpulina) hyodysenteriae. A further aim was to determine whether IL-4 could improve the growth rate of pigs under conditions of challenge with swine dysentery.
Male pigs with a mean starting weight of 6.5 kg, were allocated to treatment groups consisting of eight pigs (Table 10). Pigs were housed in group pens, with each pen containing a replicate from each of the treatment groups. One group of 8 pigs was housed in a separate room and left uninfected to act as untreated controls. Pigs were provided with pelleted feed and water ad libitum.
Prior to swine dysentery challenge, pigs were treated with recombinant IL-4 or saline, as described in Table 10. Cytokines and the antibiotic, Lincocin, were delivered by intramuscular injection at intervals outlined in Table 11. Pigs were infected with Brachyspira hyodysenteriae at day 0, day 1 and day 2, given as an oral bolus of 120ml of spirochaete culture in log phase of growth, containing approximately […] cells.
Faecal swabs and blood samples were taken from each pig at intervals described in Table 11. Faecal swabs were cultured for the presence of spirochaetes. Blood samples were assayed for immunological parameters as described in example 1 above. Pigs were weighed at weekly intervals throughout the experiment, which was terminated by euthanasia on days 19 and 20 after the initial challenge. At post mortem swabs from areas of the hindgut were cultured for the presence of spirochaetes, and the gross pathological condition of the gastro-intestinal tissue noted.

Data set [6] relates to Actinobacillus pleuropneumoniae. Description: Example 12: Actinobacillus pleuropneumoniae (App) challenge: growth, clinical signs, lung pathology. Format: in vivo, pigs.
Excerpt: The following experiment was designed to determine whether IL-4 could improve the growth of immunologically challenged pigs compared to saline treated controls and positive controls treated with the non-steroidal anti-inflammatory drug (NSAID) Flunix. It was also devised to determine whether IL-4 could be delivered via plasmids.
Male pigs, with a mean starting weight of 52 kg, were allocated to 5 treatment groups (Table 8). Pigs were housed in group pens, with each pen containing a replicate from each of the treatment groups. Pigs were provided with pelleted feed and water ad libitum.
Recombinant IL-4 and saline were administered as 2 ml doses, given subcutaneously behind the ear. Plasmids were administered in 1 ml doses, given intramuscularly in the hind-leg. Flunix was administered as a 2 ml dose according to the manufacturer's instructions, and delivered intramuscularly in the neck. The timetable of administration is outlined in Table 9 below.
as §2, §4
IL-4 delivered as a recombinant caused a reduction of 36% in the presence of clinical symptoms compared to pigs treated with saline, while IL-4 delivered in plasmid form produced a reduction of 62% compared to saline-treated controls (45% reduction compared to plasmid-treated controls).
At the conclusion of the trial, pigs were euthanased and the lungs removed for post-mortem examination. Lungs were scored for pleurisy from 0-5 (FIG. 79) and the degree of pleuropneumonia was determined by weighing affected lung and expressed as a percentage of total lung weight (FIG. 80).

The mark [7] stands for this setting: day 7 prior to challenge to slaughter at days 19 and 20.

Values joined by “and” are separate entries in the source; they are usually repeats but may differ in a detail not shown here. Equal values may be shown once. “Also recorded” adds a separate entry of the source.

interleukin 3 [IL-3]: the “absolute numbers of eosinophils in peripheral blood” value in the data set on eosinophils [1] is given as “statistically significant increase in eosinophils”. The “absolute eosinophils in blood” value in data set [2] (100 μg IL-3 daily for 5 days) is recorded as “increase in eosinophils”. Moreover, in data set [2] (500 μg IL-3 single dose on day 0), the “absolute eosinophils in blood” value was “smaller increases”. Also, in data set [2] (pig, in vivo), the basophil numbers entry was “increase in basophil numbers” and the “eosinophil index (area under the curves)” value was “although there was a biological trend it was not statistically significant”. For the same molecule, the “eosinophils as a percent of white blood cells” value in the data set on eosinophils [3] is on record as “did not significantly increase the percentage of eosinophils; also recorded: minor increases in comparison”. Besides, in data set [4] (medicated), the “average warm carcass weight at slaughter above respective saline control” value is “approximately 4 kg/pig”, the “average weights during the trial” value is recorded as “consistently showed higher average weights than all other groups”, the “final average weight higher than saline medicated control” value was “over 3.5 kg” and the “increase in total weight of all pigs compared to saline medicated group” value is “approximately 10%”. Further, in data set [4] (medicated), the individual weight range entry is listed as “more consistent weight range than other groups”. Moreover, in data set [4] (medicated and un-medicated), the “rate of gain during the weaner period” value was “increased the rate of gain over the medicated and un-medicated saline controls”. Also, the “FCR (food conversion ratio)” value in data set [4] (medicated, finisher stage) is recorded as 2.52. Also, in data set [4] (un-medicated), the “% dressing” value is on record as “substantially higher % dressing than the respective un-medicated saline control” and the “average warm carcass weight at slaughter above respective saline control” value is recorded as around 2 kg/pig.

B1: interleukin 4 (protein, UniProt Q04745 25-133, looked up)
Interleukin-4: HKCDITLQEIIKTLNILTARKNSCMELPVTDVFAAPENTTEKETFCRASTVLRHIYRHHTCMKSLLSGLDRNLSSMANMTCSVHEAKKSTLKDFLERLKTIMKEKYSKC
notes: recombinant IL-4 protein
For the molecule B1, in the data set on IL-6, the “production of IL-6” value is recorded as “undetectable levels”. In the data set with TNFα, the “TNFα production (serum)” value was “reduced levels of TNF production”. In addition, the “spirochaete shedding in faeces (faecal culture)” value in data set [5] (after challenge) is given as “decreasing levels of spirochaete shedding by day 14 after challenge”. Besides, the “reduction in the number of spirochaetes compared to saline treated pigs” value (shortened to “reduction in the number of spirochaetes”) in data set [5] (anterior colon) was found to be 93%. For the same molecule, in data set [5] (anterior colon, post mortem), the “gross pathology associated with dysentery” value was “reduced the signs of pathology associated with dysentery, and the severity of the pathology compared to saline in the anterior colon”. For the same molecule, in data set [5] (caecum), the “reduction in the number of spirochaetes” value was found to be 91%. In data set [5] (setting [7]), the “improvement in gain compared to saline or antibiotic treatment” value was determined as 24% and the “total weight gained over the challenge period” value is on record as 8.5 kg. Besides, the “improvement in end weight vs saline treated pigs” value in data set [5] (days 19 and 20) is 11% and 12%. Further, the “mean weight at the end of the trial” value in data set [5] (days 19 and 20 after infection) is on record as 15.1 kg. Moreover, the “reduction in the number of spirochaetes” value in data set [5] (faecal) came out at 86%. In addition, in data set [5] (pig, in vivo), the “heavier than pigs treated with Lincocin at the end of the trial” value stood at 15%; the “number of spirochaetes cultured from the hindgut at post mortem” value is “significantly reduced the number of spirochaetes residing in the gut compared to saline controls; also recorded: performed as well as the Lincocin antibiotic treatment in reducing the number of spirochaetes in the caecum and colon”; the variability of weight result is listed as “reduce variability by increasing the weight gained by smaller pigs”. Besides, in data set [5] (post mortem), the “incidence of clinical signs in faeces (of 8 pigs)” value came out at 3 pigs; the “pigs showing bloody and mucoid faeces (of 8 pigs)” value stood at 1 pig. In addition, the “reduction in the number of spirochaetes” value in data set [5] (posterior colon) was 84%. The “gross pathology associated with dysentery” value in data set [5] (posterior colon, post mortem) is listed as “completely prevented the development of pathology in the posterior colon”. For the same molecule, in data set [6] (30 visits in first week of challenge), the “reduction in the presence of clinical symptoms compared to saline” value is on record as 36%. Moreover, in data set [6] (after 2 weeks of challenge), the “heavier than saline treated peers at the termination of the experiment” value stood at 4.8 kg and the “improvement in growth vs saline” value stood at 73%. Moreover, the “clinical signs of disease” value in data set [6] (first week of challenge) is “slightly reduced clinical signs of disease compared to saline-treated controls”. In addition, in data set [6] (pig, in vivo), the “growth during the (first) week of App challenge” value is “positive growth during the week of challenge”; the “growth in the second week of challenge” value is “continued to gain weight”; the “pleurisy at necropsy (score 0-5)” value was “same level of pleurisy as saline-treated controls”; the “weight gain over the 2 week period following challenge with App” value was “increased weight gain compared to saline-treated controls, although this result was not statistically significant”. Besides, the “percentage of lung affected by App lesions” value in data set [6] (vs saline-treated controls) is on record as “greatly reduced”.
